Results: patent US20230295273A1 (published 2023)

Key:
[1] = target: PDGFRα-Fc Site 3 mutant (E208N, S210S as printed) (human) (UniProt P16234); assay: BLI (Octet Red); PDGFRα-Fc captured on anti-human Fc sensors, trimer as soluble analyte
[2] = target: T1, PDGFRα-Fc wild type (human PDGFRα (1-528) with C-terminal human IgG1 Fc tag) (human, UniProt P16234 24-528); assay: as above
T1 construct: range 1-528; also called WT; PDGFRα WT; not shown: C-terminal human IgG1 (Fc) tag

[3] = target: T2, PDGFRα-Fc Site 1 mutant (E52N, E54S) (human, UniProt P16234 24-528); assay: as above
T2 construct: range 1-528; Mutations meant to introduce an N-linked glycosylation site; not shown: C-terminal human IgG1 (Fc) tag
T2 sequence (P16234 24-528 E52N/E54S limits assumed, form in doubt): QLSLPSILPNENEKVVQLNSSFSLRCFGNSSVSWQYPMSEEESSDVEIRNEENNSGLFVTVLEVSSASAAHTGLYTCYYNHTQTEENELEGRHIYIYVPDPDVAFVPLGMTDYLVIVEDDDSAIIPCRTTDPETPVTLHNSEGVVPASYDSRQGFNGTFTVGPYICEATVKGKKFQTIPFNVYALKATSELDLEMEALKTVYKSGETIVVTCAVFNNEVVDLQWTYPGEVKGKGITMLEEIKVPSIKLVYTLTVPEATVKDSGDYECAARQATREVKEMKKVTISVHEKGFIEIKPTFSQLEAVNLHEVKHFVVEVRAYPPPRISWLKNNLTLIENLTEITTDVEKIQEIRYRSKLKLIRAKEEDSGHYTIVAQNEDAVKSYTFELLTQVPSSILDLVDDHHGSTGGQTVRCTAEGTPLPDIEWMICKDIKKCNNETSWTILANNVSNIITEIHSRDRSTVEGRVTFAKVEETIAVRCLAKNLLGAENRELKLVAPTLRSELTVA

[4] = target: T3, PDGFRα-Fc Site 2 mutant (E108N, N110S) (human, UniProt P16234 24-528); assay: as above
T3 construct: range 1-528; Mutations meant to introduce an N-linked glycosylation site; not shown: C-terminal human IgG1 (Fc) tag
T3 sequence (P16234 24-528 E108N/N110S limits assumed, form in doubt): as the sequence (P16234 24-528 E52N/E54S limits assumed, form in doubt) above, with N29E, S31E, E85N, N87S counted along it

[5] = target: T4, PDGFRα-Fc Site 4 mutant (E263N, K265S) (human, UniProt P16234 24-528); assay: as above
T4 construct: range 1-528; Mutations meant to introduce an N-linked glycosylation site; not shown: C-terminal human IgG1 (Fc) tag
T4 sequence (P16234 24-528 E263N/K265S limits assumed, form in doubt): as the sequence (P16234 24-528 E52N/E54S limits assumed, form in doubt) above, with N29E, S31E, E240N, K242S counted along it

[6] = target: T1, PDGFRα-Fc wild type (human PDGFRα …); assay: BLI with PDGFRα-Fc (FIG. 7D)

T1 sequence (P16234 24-528 limits assumed, form in doubt): as the sequence (P16234 24-528 E52N/E54S limits assumed, form in doubt) above, with N29E, S31E counted along it
Chain of PDGFRα-Fc Site 3 mutant (E208N, S210S as printed) (human) (P16234 24-528, stated change not applied): as the sequence (P16234 24-528 E52N/E54S limits assumed, form in doubt) above, with N29E, S31E counted along it

## HCMV gHgLgO trimer (soluble region, wild-type gO) (from UniProt P12824 24-716; Q68672 31-278)
[1]
  Kd: 21.5 nM

B1: HCMV gHgLgO trimer (soluble region, wild-type gO) (other)
chain 1: […]
chain 2: VAVSVAPTAAEKVPAECPELTRRCLLGEVFQGDKYESWLRPLVNVTGRNGPLSQLIRYRPVTPEAANSVLLDDAFLDTLALLYNNPDQLRALLTLLSSDTAPRWMTVMRGYSECGDGSPAVYTCVDDLCRGYDLTRLSYGRSIFTEHVLGFELVPPSLFNVVVAIRNEATRTNRAVRLPVSTAAAPEGITLFYGLYNAVKEFCLRHQLDPPLLRHLDKYYAGLPPELKQTRVNLPAHSRYGPQAVDAR
chain 3: […]
notes: Expressed in Expi293 cells; gH, gL and gO are disulfide-linked; also called HCMV trimer; gHgLgO complex; not shown: C-terminal Myc-Avi-His tag; C-terminal Twin-Strep-tag
[2]
  Kd: 2.25 nM
[3]
  Kd: 16.5 nM
[4]
  Kd: 2.7 nM
[5]
  Kd: 4.65 nM

B2: HCMV gHgLgO trimer with charge mutations at gO (M84R, F111R, R117E, F136R, R212E, R230E, R234E, R336E, F342E, A351R, N358R) (other)
chain 1: […]
chain 2: VAVSVAPTAAEKVPAECPELTRRCLLGEVFQGDKYESWLRPLVNVTGRNGPLSQLIRYRPVTPEAANSVLLDDAFLDTLALLYNNPDQLRALLTLLSSDTAPRWMTVMRGYSECGDGSPAVYTCVDDLCRGYDLTRLSYGRSIFTEHVLGFELVPPSLFNVVVAIRNEATRTNRAVRLPVSTAAAPEGITLFYGLYNAVKEFCLRHQLDPPLLRHLDKYYAGLPPELKQTRVNLPAHSRYGPQAVDAR
chain 3: […]
notes: also called Trimermut; TrimerMUT; not shown: C-terminal Myc-Avi-His tag; C-terminal Twin-Strep-tag
[6]
  Kd: 42500 nM
  fold reduction of binding against Trimer-WT: ~10000 times
